Measurements from patent US20130022606A1.

target: rat prolactin receptor on Nb2 rat lymphoma cells (rat) (UniProt P05710); test: FACS on rat lymphoma cell line Nb2, IgG1

EC50 [nM] | Binder
0.9 | HE06.642 (antibody, V domains shown) VH: EVQLVESGGGLVQPGGSLRLSCAVSGFTFSSYGMSWVRQAPGKGLEWVATVSSGGTYTYYPDSVKGRFTISRDNSKNTLYLQMNSLRAEDTAVYYCARHRGNYYATYYYAMDYWGQGTLVTVSS VL: DIVLTQSPDSLAVSLGERATINCKASKSVSTSGYTYMHWYQQKPGQPPKLLIYLASNRESGVPDRFSGSGSGTDFTLTISPVQAEDVATYYCQHSGELPPSFGQGTKLEIKR
1.2 | 001-E06 (IgG1) (antibody, V domains shown) VH: QVELLESGGGLVQPGGSLRLSCAASGFTFSSYWMSWVRQAPGKGLEWVSSVSDTGTDTHYADSVKGRFTISRDNSKNTLYLQMNSLRAEDTAVYYCAKTPLAYSSGWYYFDYWGQGTLVTVSS VL: DIVLTQPPSASGTPGQRVTISCSGSSSNIGSNTVNWYQQLPGTAPKLLIYRNYQRPSGVPDRFSGSKSGTSASLAISGLRSEDEADYYCQSYDSSLSGSVFGGGTKLTVLG
1.1 | XHA06.642 (antibody, V domains shown) VH: EVQLVESGGDLVKPGGSLKLSCAVSGFTFSSYGMSWVRQTPDKRLEWVATVSSGGTYTYYPDSVKGRFTISRDNAKNTLYLQMSSLKSEDSAMYYCARHRGNYYATYYYAMDYWGQGTSVTVSS VL: DIVLTQSPASLAVSLGQGATISCRASKSVSTSGYTYMHWYQQKPGQPPKLLIYLASNLESGVPARFSGSGSGTDFTLNIHPVEEEDAATYYCQHSGELPPSFGGGTKLEIKR
